Test results: US20100330158A1, “PROTEIN-ASSISTED DRUG DELIVERY SYSTEM FOR THE TARGETED ADMINISTRATION OF ACTIVE AGENTS” (InnoPharma, LLC, priority 2009, published 2010)

B1: SfaS: Recombinant His-tagged S fimbriae protein sfaS variant from E. coli CFT073, SEQ ID NO: 2 (protein)
chain: MASMTGGQQMGRGSMVDTTITVTGRVLPRTCTIGNGGNPNATVVLDNAYTSDLIAANSTSQWKNFSLTLTNCQNVNNVTATFGGTAENTNYYRNTGDATNIMVELQEQGNGNTPLKVGSTKVVTVSNGQATFNLKVRAVSKGNAGAGSINSQITVTYTYALEHHHHHH
modifications: His tag; E. coli
B2: SfaA: Recombinant His-tagged S fimbriae protein sfaA variant from E. coli CFT073, SEQ ID NO: 4 (protein)
chain: MKYLLPTAAAGLLLLAAQPAMAMDIGINGTGSMGTVHFKGEVVNAACAVNTNSFDQTVNLGQVRSERLKVDGAKSNPVGFTIELNDCDSQVSAGAGIVFSGPAVTGKTDVLALQSSAAGSATNVGVQTDHTGKVVPLDGTASSTFTLTDGTNKIPFQAVYYATGQATAGIANADATFKVQYQLEHHHHHH
modifications: His tag; E. coli

Test system: bovine brain microvascular endothelial cells (BBMVECs)
Test: Flow cytometry binding of FITC-labeled proteins to BBMVECs
Conditions: for shift in fluorescence: FITC-labeled protein incubated with BBMVECs at 4° C. (on ice) for 15 minutes; for % of the cells that bind (strongly) to the protein: BBMVECs, 15 minutes
Description: The three E. coli recombinant proteins (SfaS, SfaA, OmpA) produced in Example 1 are labeled with fluorescein isothiocyanate (FITC) to allow fluorescent detection of proteins. The proteins are labeled using the Thermo-Fisher Pierce FITC labeling kit (Thermo Fisher Scientific Inc., Waltham, Mass.) according to the manufacturer's protocol. The amounts of protein used for the labeling reaction are 0.75 mg (SfaS), 0.8 mg (OmpA) and 1.25 mg (SfaA).
Flow cytometry is performed by incubating the labeled proteins with BBMVECs. These cells are procured from Cell Applications, Inc (San Diego, Calif.). Cells are mixed with FITC proteins (individually) and incubated on ice or at 37° C. for 15 minutes, then washed, and sorted with flow cytometry.

Row | Molecule | shift in fluorescence | % of the cells that bind (strongly) to the protein (4° C. (on ice)) [%] | % of the cells that bind (strongly) to the protein (37° C.) [%]
1 | B1 | less significant shift |  | 
2 | B2 | significant shift | ~37 | ~10
